Laboratory results reported in patent publication US20170355768A1 (Bristol-Myers Squibb, published 2017).

Target: T1, human SLAM family member 7 (hSLAMF7) expressed on A20-hSLAMF7-GFP cells (human, UniProt Q9NQ25 23-335)
T1 construct: also called CS1; CS1-L
Assay: flow cytometry, 6.25 ug/ml Elotuzumab on A20-hSLAMF7-GFP cells, anti-human IgG-PE secondary
Procedure: FIG. 3. Elotuzumab binding to hSLAMF7 expressed in A20 cells was confirmed by flow cytometry. A20-GFP or A20-hSLAMF7-GFP cells were incubated with 6.25 ug/ml Elotuzumab (BMS), washed twice and incubated with anti-human IgG-PE secondary antibody. The frequency of cells staining positive for GFP and hSLAMF7 is shown at 0 days.
To determine whether hSLAMF7 expressed in A20 is recognized by Elotuzumab, A20-GFP and A20-hSLAMF7-GFP cells were stained with Elotuzumab. A20-GFP or A20-hSLAMF7-GFP cells were incubated with 6.25 ug/ml Elotuzumab (BMS), washed twice and incubated with anti-human IgG-PE secondary antibody. The frequency of cells staining positive for GFP and hSLAMF7 was determined using flow cytometry.

- binding result: binds
B1: Elotuzumab (antibody, V domains shown)
VH: EVQLVESGGGLVQPGGSLRLSCAASGFDFSRYWMSWVRQAPGKGLEWIGEINPDSSTINYAPSLKDKFIISRDNAKNSLYLQMNSLRAEDTAVYYCARPDGNYWYFDVWGQGTLVTVSS
VL: DIQMTQSPSSLSASVGDRVTITCKASQDVGIAVAWYQQKPGKVPKLLIYWASTRHTGVPDRFSGSGSGTDFTLTISSLQPEDVATYYCQQYSSYPYTFGQGTKVEIK
notes: also called BMS-901608; HuLuc63
